Laboratory results published in patent US20220363770A1 (Amgen, published 2022).
Positions count from the first letter of the chain named. In names and notes the source's numbering stands. Blank lines part the entries; values can stand above or below the binder they belong to.

Key:
[1] = biological target: human CGRP receptor (human CRLR / human RAMP1 heterodimer) on SK-N-MC (HTB-10) cells (human, UniProt Q16602 23-461; O60894 27-148); experiment: cell-based or functional assay
[2] = biological target: T1, human PAC1 receptor on SH-SY5Y (CRL-2266) cells (human, UniProt P41586 24-468); experiment: cell-based or functional assay
T1 sequence: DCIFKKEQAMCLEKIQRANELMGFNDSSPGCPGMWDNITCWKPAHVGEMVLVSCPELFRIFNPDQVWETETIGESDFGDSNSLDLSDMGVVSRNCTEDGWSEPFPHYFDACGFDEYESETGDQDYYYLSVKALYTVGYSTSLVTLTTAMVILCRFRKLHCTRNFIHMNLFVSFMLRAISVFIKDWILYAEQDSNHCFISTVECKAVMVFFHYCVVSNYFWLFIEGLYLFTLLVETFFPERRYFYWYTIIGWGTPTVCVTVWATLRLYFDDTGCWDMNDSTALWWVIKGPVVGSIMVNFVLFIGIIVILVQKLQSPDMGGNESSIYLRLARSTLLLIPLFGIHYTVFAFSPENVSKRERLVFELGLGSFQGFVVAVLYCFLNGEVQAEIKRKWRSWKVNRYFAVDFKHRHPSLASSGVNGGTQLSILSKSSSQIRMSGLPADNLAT

[3] = biological target: T2, soluble CGRP receptor (ECDs of human CRLR and human RAMP1) (human, UniProt Q16602 23-133; O60894 26-117); experiment: SPR (Biacore T200), antibody captured, soluble CGRP receptor as analyte
T2 construct: complex treated with thrombin before crystallization; also called soluble human CGRP receptor; CRLR ECD/RAMP1 ECD heterodimer

[4] = biological target: T3, soluble CGRP receptor (extracellular domains of human CRLR and human RAMP1) (human, UniProt Q16602 23-133; O60894 26-117); experiment: SPR (Biacore T200), antibody captured by goat anti-human Fc, soluble CGRP receptor as analyte
T3 construct: the tag and the thrombin site are not described; also called soluble human CGRP receptor; CGRP receptor ECD
T3 sequence (Q16602 23-133, chain 1 of 2): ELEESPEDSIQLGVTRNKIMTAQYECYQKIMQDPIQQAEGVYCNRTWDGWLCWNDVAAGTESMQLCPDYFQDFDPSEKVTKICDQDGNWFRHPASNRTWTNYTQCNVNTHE
T3 sequence (O60894 26-117, chain 2 of 2): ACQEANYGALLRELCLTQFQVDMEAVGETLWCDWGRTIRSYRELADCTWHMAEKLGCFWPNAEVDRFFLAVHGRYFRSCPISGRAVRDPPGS

T2 sequence (Q16602 23-133, chain 1 of 2): as the sequence (Q16602 23-133, chain 1 of 2) above
T2 sequence (O60894 26-117, chain 2 of 2): as the sequence (O60894 26-117, chain 2 of 2) above
Chain of human CGRP receptor (human CRLR / human RAMP1 heterodimer) on SK-N-MC (HTB-10) cells (Q16602 23-461 limits assumed, chain 1 of 2): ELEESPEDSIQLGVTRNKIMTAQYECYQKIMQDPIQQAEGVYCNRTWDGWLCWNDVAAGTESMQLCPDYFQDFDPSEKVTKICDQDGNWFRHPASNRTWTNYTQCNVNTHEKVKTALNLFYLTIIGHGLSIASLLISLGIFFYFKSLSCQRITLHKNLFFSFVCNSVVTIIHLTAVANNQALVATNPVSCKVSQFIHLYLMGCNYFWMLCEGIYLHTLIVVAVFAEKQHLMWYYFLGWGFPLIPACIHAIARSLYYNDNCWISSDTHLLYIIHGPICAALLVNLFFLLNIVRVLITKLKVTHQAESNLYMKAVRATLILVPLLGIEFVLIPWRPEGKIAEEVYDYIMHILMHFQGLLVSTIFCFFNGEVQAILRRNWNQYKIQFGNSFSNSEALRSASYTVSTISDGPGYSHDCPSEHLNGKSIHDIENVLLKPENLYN
Chain of human CGRP receptor (human CRLR / human RAMP1 heterodimer) on SK-N-MC (HTB-10) cells (O60894 27-148 limits assumed, chain 2 of 2): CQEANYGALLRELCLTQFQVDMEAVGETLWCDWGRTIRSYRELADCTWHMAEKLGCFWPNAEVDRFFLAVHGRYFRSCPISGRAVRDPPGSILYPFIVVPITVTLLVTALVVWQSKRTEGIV

Fold-improvement over 4E4 Ab (human CGRP receptor IC50) [1]: 1.5 fold | Human CGRP Receptor IC50 (nM), cell-based cAMP assay [1]: 0.38 nM | Fold-improvement over 29G4v22 Ab (human PAC1 receptor IC50) [2]: 6.6 fold | Human PAC1 Receptor IC50 (nM), cell-based cAMP assay [2]: 0.62 nM
B1: iPS:571824 (5609) anti-CGRP receptor/anti-PAC1 receptor bispecific hetero-immunoglobulin (bispecific antibody, human IgG1, kappa, lambda, N297G)
light 1: QSVLTQPPSVSAAPGQKVTISCSGSYSNIGRYSVSWYQQLPGTAPKLLIYDNNKRPSGIPDRFSGSKSGTSATLGITGLQTGDEADYYCGTWDSRLSAVVFGGGTKLTVLGQPKAAPSVTLFPPSSEELQANKATLVCLISDFYPGAVTVAWKADSSPVKAGVETTTPSKQSNNKYAAKSYLSLTPEQWKSHRSYSCQVTHEGSTVEKTVAPTECS
heavy 1: QVQLVESGGGVVQPGRSLRLSCAASGFTFSSFGMHWVRQAPGKGLEWVAVISFDGSIKYSVDSVKGRFTISRDNSKNTLFLQMNSLRAEDTAVYYCARDRLNYYESSGYYHYKYYGMAVWGQGTTVTVSSASTKGPSVFPLAPSSKSTSGGTAALGCLVKDYFPEPVTVSWNSGALTSGVHTFPAVLQSSGLYSLESVVTVPSSSLGTQTYICNVNHKPSNTKVDKKVEPKSCDKTHTCPPCPAPELLGGPSVFLFPPKPKDTLYITREPEVTCVVVDVSHEDPEVKFNWYVDGVEVHNAKTKPCEEQYGSTYRCVSVLTVLHQDWLNGKEYKCKVSNKALPAPIEKTISKAKGQPREPQVYTLPPSREKMTKNQVSLTCLVKGFYPSDIAVEWESNGQPENNYKTTPPVLKSDGSFFLYSKLTVDKSRWQQGNVFSCSVMHEALHNHYTQKSLSLSPGK
light 2: EIVLTQSPATLSLSPGERATLSCRASKSVGRSLHWYQQKPGQAPRLLIKYASQSLSGIPARFSGSGSGTDFTLTISSLEPEDFAVYYCHQSSRLPFTFGPGTKVDIKRTVAAPSVFIFPPSDEQLKSGTASVVCLLNNFYPREAKVQWKVDNALQSGNSQESVTEQDSKDSTYSLESTLTLSKADYEKHKVYACEVTHQGLSSPVTKSFNRGEC
heavy 2: not shown

fold faster dissociation rate against wild-type 4E4 [3]: ~5 fold
B2: 4E4 single-point alanine variant antibody H_D54A (antibody, V domains shown)
VH: QVQLVESGGGVVQPGRSLRLSCAASGFTFSSFGMHWVRQAPGKGLEWVAVISFAGSIKYSVDSVKGRFTISRDNSKNTLFLQMNSLRAEDTAVYYCARDRLNYYDSSGYYHYKYYGMAVWGQGTTVTVSS
VL: QSVLTQPPSVSAAPGQKVTISCSGSSSNIGNNYVSWYQQLPGTAPKLLIYDNNKRPSGIPDRFSGSKSGTSTTLGITGLQTGDEADYYCGTWDSRLSAVVFGGGTKLTVLG
notes: Recombinantly expressed as monoclonal antibody; also called CDRH2 D54A antibody variant

B3: 4E4 single-point alanine variant antibody H_Y103A (antibody, V domains shown)
VH: B2 VH with A54D, Y103A
VL: B2 VL
notes: Recombinantly expressed as monoclonal antibody
binding result [3]: no binding (tested: 1000 nM (highest analyte concentration))

B4: 4E4 heavy chain Y104A single-point alanine variant antibody (antibody, V domains shown)
VH: B2 VH with A54D, Y104A
VL: B2 VL
notes: Recombinantly expressed as a monoclonal antibody
binding result [4]: no binding (tested: soluble CGRP receptor up to 1000 nM)

B5: 4E4 single-point alanine variant antibody H_Y109A (antibody, V domains shown)
VH: B2 VH with A54D, Y109A
VL: B2 VL
notes: as for B3
binding result [3]: no binding (tested: 1000 nM (highest analyte concentration))

B6: 4E4 single-point alanine variant antibody H_Y104A (antibody, V domains shown)
VH: B2 VH with A54D, Y104A
VL: B2 VL
notes: as for B3
binding result [3]: no binding (tested: 1000 nM (highest analyte concentration))

B7: 4E4 heavy chain Y110A single-point alanine variant antibody (antibody, V domains shown)
VH: B2 VH with A54D, Y110A
VL: B2 VL
notes: as for B4
binding result [4]: no binding (tested: soluble CGRP receptor up to 1000 nM)

B8: 4E4 heavy chain Y109A single-point alanine variant antibody (antibody, V domains shown)
VH: B2 VH with A54D, Y109A
VL: B2 VL
notes: as for B4
binding result [4]: no binding (tested: soluble CGRP receptor up to 1000 nM)

B9: 4E4 heavy chain Y103A single-point alanine variant antibody (antibody, V domains shown)
VH: B2 VH with A54D, Y103A
VL: B2 VL
notes: as for B4
binding result [4]: no binding (tested: soluble CGRP receptor up to 1000 nM)

B10: 4E4 single-point alanine variant antibody H_Y110A (antibody, V domains shown)
VH: B2 VH with A54D, Y110A
VL: B2 VL
notes: as for B3
binding result [3]: no binding (tested: 1000 nM (highest analyte concentration))
